Assay results: article PMC10715077

Biological target: recombinant PGI protein (pGEX-4T-PGI) (Ganoderma lucidum)
Test: SPR; Biacore T200, NTA sensor chip; PGI immobilised, TLP2 as analyte at 0-400 µM (legend: 0-400 nM); 50 mM HEPES pH 7.5, 150 mM NaCl, 0.1% Tween 20

“recombinant TLP2 protein (pColdI-TLP2) (natural protein)” showed a Kd of 2210 nM.
